In PMC2900196:

Assays:
[1] = target: Grass carp reovirus (GCRV) turret protein VP1 (Grass carp reovirus (GCRV)); assay: cryo-EM structure
[2] = target: Grass carp reovirus (GCRV) inner capsid shell protein VP3 (Grass carp reovirus (GCRV)); assay: cryo-EM structure

## Grass carp reovirus (GCRV) turret protein VP1 (natural protein)
[1]
  stoichiometry N: 5

## Grass carp reovirus (GCRV) inner capsid shell protein VP3 (natural protein)
[2]
  stoichiometry N: 120
